{
  "source": "FireProtDB (doi:10.1093/protein/10.5.575)",
  "conditions": "Bos taurus, pH 7, Absorbance, phosphate 0.1 M, reversible: yes, whole UniProt chain shown",
  "data": [
    {"protein": "Cytochrome b5 wild type, P00171 (protein) MAEESSKAVKYYTLEEIQKHNNSKSTWLILHYKVYDLTKFLEEHPGGEEVLREQAGGDATENFEDVGHSTDARELSKTFIIGELHPDDRSKITKPSESIITTIDSNPSWWTNWLIPAISALFVALIYHLYTSEN", "values": [
      {"measurement": "denaturant midpoint (higher = more stable)", "setting": "30 °C, Urea", "value": 7.1, "unit": "M"},
      {"measurement": "Tm", "setting": "Thermal", "value": 66.2, "unit": "°C"},
      {"measurement": "unfolding enthalpy (van 't Hoff)", "setting": "Thermal", "value": 71.3, "unit": "kcal/mol"}
    ]}
  ]
}
